Consider 90 substances from patent US8620595B2, “Methods for determining the retention of peptides in reverse phase chromatography using linear solvent strength theory” (University of Manitoba, priority 2010, dated 2013).

One data set in a line: Isocratic elution measurement of slope S (log k vs. φ plots), RP-HPLC with UV detection. The data set is classed as physicochemical. The note with it: Luna C18(2) column, water/acetonitrile with 0.1% formic acid, 22-23° C. As for the experimental part: (§1) Chromatography. All chromatographic experiments were conducted at a controlled temperature of 22-23° C. For isocratic measurement of the slope values, a micro-Agilent 1100 Series system (Agilent Technologies, Wilmington, Del.), was used with a 1 mm×100 mm 5 μm Luna C18(2) (Phenomenex, Torrance, Calif.) column and a UV detector operated at 214 nm. Both eluents A (water) and B (acetonitrile) contained 0.1% formic acid as ion-pairing modifier. Stock solutions of the 11 standard peptides (˜1 mg/ml) were prepared by dissolving each peptide in 1 ml of 0.1% FA in water or a 20% acetonitrile solution. Ten microliters of sample was injected. Individual peptides were diluted to provide ˜0.5-1 μg injection of each component using a 10 μl loop. The dead volume of the column and connecting tubings was determined by injecting a non-retained compound (water) and measuring the elution time of the negative peak at a 150 μL/min flow rate. Retention factors for isocratic elution were calculated using the formula: k=(tR−t0)/t0c; where tR is the retention time, t0 is the system (column and tubings) dead time, and t0c is the column dead time. Additional details of measuring S-values via constructing log k vs. φ plots are provided elsewhere.^24 The nano-LC MS/MS experiments were conducted using splitless Tempo LC system (Eksigent, Dublin, Calif.) with 20 μL sample injection via a 300 μm×5 mm PepMap100 (Dionex, Sunnyvale, Calif.) trap-column and a 100 μm×200 mm analytical column packed with 5 μm Luna C18(2) (Phenomenex, Torrance, Calif.). Tryptic digests of the mixtures were spiked with calibrating peptides (see Table 1) as described above, injected on the trap-column using buffer A as a carrier and separated using 0.1875, 0.375 and 0.75 percent acetonitrile per minute linear gradients starting from 0.5% acetonitrile at 500 nL/min flow rate. The composition of both eluents A and B was identical to one described above for normal-flow system. Gradient programs consisted of a 0.5-40% linear increase of buffer B in 213.2, 106.6 and 53.3 minutes, respectively. After each run the gradient columns were washed with 80% B for 3 minutes and equilibrated with the starting A:B ratio for 18 minutes.
Accordingly, for the determination of S-values of the set of synthetic peptides we used an isocratic elution procedure, despite it being extremely labor intense.^23 Isocratic measurements consist of determining retention times of peptides at several constant acetonitrile concentrations and plotting experimental Eqn. 1 for each peptide.
These two ways of measurement have been combined to provide a highly accurate and fast way of determining S for an extensive sets of peptides (see FIG. 3). First, precise isocratic measurement of S is performed in normal flow conditions with UV detection for a set of synthetic “S-calibrating” peptides. Similar to the previously described peptide mixture P1-P6 designed to cover wide range of hydrophobicities, these peptides were chosen to cover wide range of S-values (Table 1). Second—a tryptic digest of the bovine proteins mixture (model mixture) is spiked with the “S-calibrating” peptides and run under two different gradient slopes in nano-flow RP-HPLC MS: 0.75 and 0.1875% acetonitrile per minute in our case. Third—retention times are assigned for all identified species. Fourth—retention time shifts in acetonitrile percentage (ACN %) units relative to P3 were determined as: Δ=(tR 0.75−tRP3 0.75)*0.75−(tR 0.1875−tRP3 0.1875)*0.1875 (3); where tR 0.75 and tRP3 0.75 are the retention times of any peptide and reference P3 at 0.75% per minute, and tR 0.1875 and tRP3 0.1875 are the retention times of any peptide and reference P3 at 0.1875% acetonitrile per minute gradient, respectively. Fifth—an experimental Δ vs. S curve was plotted for S-calibrating peptides (FIG. 3). Sixth—S values were extracted from this dependence for all peptides observed in both nano-RP-HPLC MS runs by extrapolation of experimental Δ on this plot.
As for “LLLGGDFR [Peptide 3, synthetic S-calibrating peptide]”, the “Slope (S in the basic LSS equation)” value is given as 21.46.
Turning to “LGGGGGGDFR [Peptide 1, synthetic S-calibrating peptide]”, the “Slope (S in the basic LSS equation)” value was 28.2.

A further data set can be described thus: Determination of S from retention time shift Δ relative to P3 at two gradient slopes, nano-RP-HPLC MS of spiked tryptic digest. The settings on record: experimental S value, LC-MS runs of model peptide mixture. It counts as physicochemical. As for the experimental part:
Proteins and protein digestion. Tryptic digests of two different protein mixtures were utilized. The “test peptide mixture” contained human proteins: albumin, transferrin, fibrinogen. The “model peptide mixture” contained bovine proteins: albumin, transferrin, fibrinogen, catalase. Equimolar mixtures of the proteins were prepared, reduced with DTT, alkylated with iodoacetamide and digested with sequencing-grade modified trypsin (Promega, Madison, Wis.). Prior to nano-LC MS/MS analysis, mixtures were diluted with buffer A (0.1% formic acid in water) and spiked with the 6 standard peptides P1-P6^24 for test mixture and the set of 11 model peptides (described elsewhere^23) for a model mixture. All dilutions were performed to provide an injection of ˜100 fmole of each component into the nanoRP-HPLC MS system.
as §1
Mass spectrometry. A QStar Elite mass spectrometer (Applied Biosystems, Foster City, Calif.) equipped with a MicrolonSpray II source was used in standard MS/MS information dependent acquisition (IDA) mode for LC-ESI analyses. Protein identification was performed using Protein Pilot 3.0 (Applied Biosystems, Foster City, Calif.) with a restricted database containing target protein sequences and the sequences of standard peptides. Retention times of identified species (peak maxima) were assigned manually.
These two ways of measurement have been combined to provide a highly accurate and fast way of determining S for an extensive sets of peptides (see FIG. 3). First, precise isocratic measurement of S is performed in normal flow conditions with UV detection for a set of synthetic “S-calibrating” peptides. […]
With QNQVQDNENWNEYSSHLEK, the “Slope (experimental)” value was 40.065.
In the case of RTPIAVR, the “Slope (experimental)” value was found to be 39.365.
LNSLTVGPR: the “Slope (experimental)” value is 30.791.
Take EPYFGYSGAFK: the “Slope (experimental)” value worked out at 28.713.
Still for that read-out and setting: under TSDANINWNNLK stands 30.109.
Turning to WCTISQPEWFK, the “Slope (experimental)” value was 30.438.
With YCGVPGEYWLGNDR, the “Slope (experimental)” value was found to be 29.184.
Same read-out and setting: to LAGSASADAFR belongs 32.092.
For the substance LKPDPNTLCDEFK, the “Slope (experimental)” value worked out at 36.757.
As for LRPVAAEIYGTK, the “Slope (experimental)” value was 34.815.
On to SMMEEIMK, for which the “Slope (experimental)” value is on record as 25.394.
For CLQDGAGDVAFVK, the “Slope (experimental)” value is on record as 31.382.
The same measure, in the same setting: to LLSAADFR belongs 25.969; to KDMDKVETFLR, 34.768; to LCENIAGHLK, 37.285.
Regarding YICDNQDTISSK, the “Slope (experimental)” value is listed as 37.666.
Turning to LLVLLHFR, the “Slope (experimental)” value came out at 27.548.
Turning to LLSAAHFR, the “Slope (experimental)” value came to 32.998.
On the same count and under the same terms, under DAQLFIQK stands 24.282; under IIPLNR, 28.596; under DNPQTHYYAVAVVKK, 39.552.
On to CCTESLVNR, for which the “Slope (experimental)” value was found to be 33.998.
For ETTVFENLPEKADR, the “Slope (experimental)” value is reported as 34.533.
For the substance NFSDVHPEYGSR, the “Slope (experimental)” value worked out at 37.948.
Take LLLLDFR: the “Slope (experimental)” value was determined as 23.297.
Regarding EPISVSSQQMLK, the “Slope (experimental)” value is on record as 33.2.
In the case of QAYPNLCQLCK, the “Slope (experimental)” value came out at 32.399.
As to LKECCDKPLLEK, the “Slope (experimental)” value is given as 42.82.
With GGWTVIQNR, the “Slope (experimental)” value stood at 26.957.
Take VLDALDSIK: the “Slope (experimental)” value was found to be 26.128.
As for DIQYLPILK, the “Slope (experimental)” value worked out at 25.291.
In the case of APVDAFKECHLAQVPSHAVVAR, the “Slope (experimental)” value is given as 46.264.
In the case of KEEAPSLRPVPPPISGGGYR, the “Slope (experimental)” value is 42.646.
For the substance NLLFNDNTECLAK, the “Slope (experimental)” value is 28.81.
In the case of FPTIPLSR, the “Slope (experimental)” value worked out at 27.325.
In the case of LESDVSTQMEYCR, the “Slope (experimental)” value was determined as 35.968.
With RLDGSLDFKK, the “Slope (experimental)” value was 35.968.
Consider VVWCAVGPEEQK, for which the “Slope (experimental)” value was 29.603.
Consider IQLEDWNGR, for which the “Slope (experimental)” value came out at 27.849.
Turning to EGFGHLSPTGNTEFWLGNEK, the “Slope (experimental)” value was 36.558.
RWQWR: the “Slope (experimental)” value worked out at 27.269.
For the substance GLIDEVDQDFTSR, the “Slope (experimental)” value was 30.089.
YAAELHLVHWNTK: the “Slope (experimental)” value is 36.188.
Regarding FFSASCVPCIDR, the “Slope (experimental)” value came out at 32.333.
NTPEKGYLAVAVVK: the “Slope (experimental)” value came to 34.392.
In the case of QNCDQFEK, the “Slope (experimental)” value was 36.657.
With LCALCAGDDQGLDK, the “Slope (experimental)” value was found to be 33.517.
With WQWR, the “Slope (experimental)” value is recorded as 22.398.
The same measure, in the same setting: to “DGTRKPVTDAENCHLAR [tryptic peptide of the model peptide mixture, 5 positively charged groups]” belongs 50.359; to NECFLSHKDDSPDLPK, 41.14; to NLRETAEEVK, 40.778.
IETMR: the “Slope (experimental)” value came out at 37.108.
In the case of LLHLLHFR, the “Slope (experimental)” value worked out at 31.51.
As to LGPNYLQIPVNCPYR, the “Slope (experimental)” value was 32.953.
As for FSTVAGESGSADTVRDPR, the “Slope (experimental)” value amounted to 44.208.
Consider YETLISTHESTIR, for which the “Slope (experimental)” value is recorded as 36.09.
As to VPQVSTPTLVEVSR, the “Slope (experimental)” value was determined as 33.745.
Still for that read-out and setting: under LKPDPNTLCDEFKADEK stands 41.815.
For the substance AFALECIR, the “Slope (experimental)” value is given as 26.057.

The data set is the same for the next values; noted with them: experimental S, LC-MS runs of model peptide mixture, formic acid.
For HSTVFDNLPNPEDR, the “Slope (experimental)” value came out at 34.439.
On to DLEEGIQTLMGR, for which the “Slope (experimental)” value is reported as 26.684.
As to APVDAFK, the “Slope (experimental)” value was 26.378.
Same read-out and setting: to AWSVAR belongs 26.993; to DFPIANGER, 26.539; to TGLAPEFAALGESGSSSSK, 28.402.
For the substance CCAADDKEACFAVEGPK, the “Slope (experimental)” value turned out to be 38.207.
Turning to SLHTLFGDELCK, the “Slope (experimental)” value was 30.438.
On to YNGVFQECCQAEDK, for which the “Slope (experimental)” value was found to be 32.73.
The same measure, in the same setting: to INLLQK belongs 24.664; to TGQIFK, 24.984; to QDGSVDFGR, 28.518.
Still for that read-out and setting: under ESKPPDSSKDECMVK stands 48.845; under DSADGFLKIPSK, 30.089; under CLVEK, 27.661.
As to NYELLCGDNTR, the “Slope (experimental)” value worked out at 27.868.
In the case of CACSNHEPYFGYSGAFK, the “Slope (experimental)” value is listed as 35.846.
Same read-out and setting: to KANEGLTWNSLK belongs 31.085; to LAIGEGQQHQLGGAK, 39.74; to LAGGGSASSSADAAAFR, 35.894.
The same measure, in the same setting: under GTGKECVPNSNER stands 48.911; under LLGGGGDFR, 25.846; under DALLFPSFIHSQK, 29.523.
Consider ANEGLTWNSLKDK, for which the “Slope (experimental)” value is on record as 32.686.
Same read-out and setting: to “DLLFK [tryptic peptide detected in the model peptide mixture]” belongs 18.223.
ECCHGDLLECADDR: the “Slope (experimental)” value was found to be 34.957.
Take KPPDADGCLHADPDLGVLCPTGCK: the “Slope (experimental)” value is 40.448.
For the substance DALLFPSFIHSQKR, the “Slope (experimental)” value amounted to 30.728.
EDGGGWWVYNR: the “Slope (experimental)” value stood at 23.696.

Still in this data set, the particulars now being: model peptide mixture (tryptic digest of bovine proteins), 0.75 and 0.1875% acetonitrile per minute gradients, formic acid, S from Δ vs. S curve of S-calibrating peptides.
Take “DGTRKPVTDAENCHLAR [tryptic peptide of the model peptide mixture, 5 positively charged groups]”: the “experimental S-value” was 50.4.
Turning to “DLLFK [tryptic peptide detected in the model peptide mixture]”, the “experimental S-value” was 18.2.
